Assay results reported in CN114423789A (ZHEJIANG JIANMAI PHARMACEUTICAL CO LTD, dated 2022).

B1: M10 Fab (Fab, V domains shown)
VH: QLVETGGGLVQPGRSLRLSCAASGFTFDDYAMHWVRQAPGKGLEWVSGISWNSGSIGYADSVKGRFTISRDNAKNSLYLQMNSLRAEDTAVYYCARDSGSSGWYGYFQHWGQGTLVTVSS
VL: SYVLTQPPSVSVSPGQTARITCSGDALPKQYAFWYQQKPGQAPVLVIYKDSERPSGIPERFSGSSSGTTVTLTISGVQAEDEADYYCQSADSSATSVIFGGGTKLTVLG
notes: also called Fab克隆M10
B2: M10 mAb (anti-human mesothelin monoclonal antibody IgG1) (antibody, V domains shown)
VH: B1 VH
VL: B1 VL
notes: Full human IgG1: the heavy-chain Fd of M10 Fab fused to human IgG1 Fc, about 150 kDa non-reduced; also called 抗间皮素M10 mAb; 抗间皮素单克隆抗体

Assays:
[1] = biological target: T1, recombinant human mesothelin (full-length extracellular domain) (human, UniProt Q13421 296-580, limits assumed); experiment: ELISA, recombinant human mesothelin coated at 50 ng/well, Fab detected with HRP anti-FLAG
T1 construct: extracellular domain; Bought protein coated on ELISA plates at 50 ng per well; also called 重组人间皮素; 人间皮素(MSLN)蛋白

[2] = biological target: T1, recombinant human mesothelin …; experiment: ELISA, recombinant human mesothelin coated at 50 ng/well, fit to a Langmuir isotherm

T1 sequence (Q13421 other isoform, or with tags, fused parts or gaps limits assumed): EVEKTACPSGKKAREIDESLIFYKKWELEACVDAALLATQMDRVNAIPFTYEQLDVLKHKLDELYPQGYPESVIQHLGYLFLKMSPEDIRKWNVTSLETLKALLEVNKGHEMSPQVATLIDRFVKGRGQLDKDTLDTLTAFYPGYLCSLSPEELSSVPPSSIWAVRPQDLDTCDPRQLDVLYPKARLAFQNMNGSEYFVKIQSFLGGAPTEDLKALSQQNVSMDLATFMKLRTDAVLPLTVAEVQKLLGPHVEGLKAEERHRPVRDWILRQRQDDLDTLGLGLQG

| Binder | EC50 [1] [nM] | EC50 [2] [nM] |
| --- | --- | --- |
| B1 | 21 |  |
| B2 |  | 0.2 |
